Assay [1] concerns the target T1, human GIP receptor (human, UniProt P48546 22-466).
T1 sequence (looked up): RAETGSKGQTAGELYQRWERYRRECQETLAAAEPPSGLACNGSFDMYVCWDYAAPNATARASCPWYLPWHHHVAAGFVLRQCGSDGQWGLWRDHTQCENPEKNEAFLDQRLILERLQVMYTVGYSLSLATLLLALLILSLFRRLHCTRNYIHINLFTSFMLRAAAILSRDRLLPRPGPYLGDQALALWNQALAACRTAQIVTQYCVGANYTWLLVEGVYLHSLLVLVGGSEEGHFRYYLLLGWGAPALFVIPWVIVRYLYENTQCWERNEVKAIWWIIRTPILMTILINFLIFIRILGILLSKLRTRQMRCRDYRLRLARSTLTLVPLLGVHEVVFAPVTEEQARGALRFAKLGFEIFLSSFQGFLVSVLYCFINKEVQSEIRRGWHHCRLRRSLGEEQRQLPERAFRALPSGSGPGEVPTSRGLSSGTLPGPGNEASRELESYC
Briefly: cell-based or functional assay.

Assay [2] addresses human GLP-1 receptor (human, UniProt P43220 24-463). Briefly: cell-based or functional assay.

Numbered stars: 1 amine (or outer) side, 2 acyl side, 3 side chain; on linkers, the order of the positions; unused ones are H or OH. Square brackets hold non-standard residues; d marks the D form. Side chains are listed from the residue outwards. Ends that are not written are not given here. * marks the point of attachment. C20 diacid = O=C(O)CCCCCCCCCCCCCCCCCCC(=O)*; γGlu = O=C(O)[C@H](CCC(=O)[*:2])N[*:1]; AEEA = NCCOCCOCC(=O)O; Aib = CC(C)(N)C(=O)O

B1: Example 47 (peptide)
peptide: Y[Aib]EGTFTSDYSILLDKIAQ[Aib]AFIEYLIEGGPSSGAPPK([AEEA-AEEA-γGlu-C20 diacid])S-NH2
modifications: N-terminus assumed
SMILES: CC[C@H](C)[C@H](NC(=O)[C@H](CCCCN)NC(=O)[C@H](CC(=O)O)NC(=O)[C@H](CC(C)C)NC(=O)[C@H](CC(C)C)NC(=O)[C@@H](NC(=O)[C@H](CO)NC(=O)[C@H](Cc1ccc(O)cc1)NC(=O)[C@H](CC(=O)O)NC(=O)[C@H](CO)NC(=O)[C@@H](NC(=O)[C@H](Cc1ccccc1)NC(=O)[C@@H](NC(=O)CNC(=O)[C@H](CCC(=O)O)NC(=O)C(C)(C)NC(=O)[C@@H](N)Cc1ccc(O)cc1)[C@@H](C)O)[C@@H](C)O)[C@@H](C)CC)C(=O)N[C@@H](C)C(=O)N[C@@H](CCC(N)=O)C(=O)NC(C)(C)C(=O)N[C@@H](C)C(=O)N[C@@H](Cc1ccccc1)C(=O)N[C@H](C(=O)N[C@@H](CCC(=O)O)C(=O)N[C@@H](Cc1ccc(O)cc1)C(=O)N[C@@H](CC(C)C)C(=O)N[C@H](C(=O)N[C@@H](CCC(=O)O)C(=O)NCC(=O)NCC(=O)N1CCC[C@H]1C(=O)N[C@@H](CO)C(=O)N[C@@H](CO)C(=O)NCC(=O)N[C@@H](C)C(=O)N1CCC[C@H]1C(=O)N1CCC[C@H]1C(=O)N[C@@H](CCCCNC(=O)COCCOCCNC(=O)COCCOCCNC(=O)CC[C@H](NC(=O)CCCCCCCCCCCCCCCCCCC(=O)O)C(=O)O)C(=O)N[C@@H](CO)C(N)=O)[C@@H](C)CC)[C@@H](C)CC
For B1, in assay [1], the “hGIPR cAMP EC50 ratio” value came out at 0.654 and the “hGIPR cAMP Rel EC50” value is 0.287 nM. In assay [2], the “hGLP1R cAMP EC50 ratio” value was determined as 0.089 and the “hGLP1R cAMP Rel EC50” value came to 0.702 nM.

B2: Example 45 (peptide)
peptide: Y[Aib]EGTFTSDYSILLDKIAQ[Aib]AFIEYLIEGGPSSGAK([AEEA-AEEA-γGlu-C20 diacid])PPS-NH2
modifications: N-terminus assumed
SMILES: CC[C@H](C)[C@H](NC(=O)[C@H](CCCCN)NC(=O)[C@H](CC(=O)O)NC(=O)[C@H](CC(C)C)NC(=O)[C@H](CC(C)C)NC(=O)[C@@H](NC(=O)[C@H](CO)NC(=O)[C@H](Cc1ccc(O)cc1)NC(=O)[C@H](CC(=O)O)NC(=O)[C@H](CO)NC(=O)[C@@H](NC(=O)[C@H](Cc1ccccc1)NC(=O)[C@@H](NC(=O)CNC(=O)[C@H](CCC(=O)O)NC(=O)C(C)(C)NC(=O)[C@@H](N)Cc1ccc(O)cc1)[C@@H](C)O)[C@@H](C)O)[C@@H](C)CC)C(=O)N[C@@H](C)C(=O)N[C@@H](CCC(N)=O)C(=O)NC(C)(C)C(=O)N[C@@H](C)C(=O)N[C@@H](Cc1ccccc1)C(=O)N[C@H](C(=O)N[C@@H](CCC(=O)O)C(=O)N[C@@H](Cc1ccc(O)cc1)C(=O)N[C@@H](CC(C)C)C(=O)N[C@H](C(=O)N[C@@H](CCC(=O)O)C(=O)NCC(=O)NCC(=O)N1CCC[C@H]1C(=O)N[C@@H](CO)C(=O)N[C@@H](CO)C(=O)NCC(=O)N[C@@H](C)C(=O)N[C@@H](CCCCNC(=O)COCCOCCNC(=O)COCCOCCNC(=O)CC[C@H](NC(=O)CCCCCCCCCCCCCCCCCCC(=O)O)C(=O)O)C(=O)N1CCC[C@H]1C(=O)N1CCC[C@H]1C(=O)N[C@@H](CO)C(N)=O)[C@@H](C)CC)[C@@H](C)CC
With B2, in assay [1], the “hGIPR cAMP EC50 ratio” value was found to be 1.75 and the “hGIPR cAMP Rel EC50” value was found to be 0.106 nM. In addition, in assay [2], the “hGLP1R cAMP EC50 ratio” value is 0.0569 and the “hGLP1R cAMP Rel EC50” value was found to be 1.03 nM.

B3: Example 49 (peptide)
peptide: Y[Aib]EGTFTSDYSILLDKIAQ[Aib]AFIEYLIEGGPSSGAPPPSK([AEEA-AEEA-γGlu-C20 diacid])-NH2
modifications: N-terminus assumed
SMILES: CC[C@H](C)[C@H](NC(=O)[C@H](CCCCN)NC(=O)[C@H](CC(=O)O)NC(=O)[C@H](CC(C)C)NC(=O)[C@H](CC(C)C)NC(=O)[C@@H](NC(=O)[C@H](CO)NC(=O)[C@H](Cc1ccc(O)cc1)NC(=O)[C@H](CC(=O)O)NC(=O)[C@H](CO)NC(=O)[C@@H](NC(=O)[C@H](Cc1ccccc1)NC(=O)[C@@H](NC(=O)CNC(=O)[C@H](CCC(=O)O)NC(=O)C(C)(C)NC(=O)[C@@H](N)Cc1ccc(O)cc1)[C@@H](C)O)[C@@H](C)O)[C@@H](C)CC)C(=O)N[C@@H](C)C(=O)N[C@@H](CCC(N)=O)C(=O)NC(C)(C)C(=O)N[C@@H](C)C(=O)N[C@@H](Cc1ccccc1)C(=O)N[C@H](C(=O)N[C@@H](CCC(=O)O)C(=O)N[C@@H](Cc1ccc(O)cc1)C(=O)N[C@@H](CC(C)C)C(=O)N[C@H](C(=O)N[C@@H](CCC(=O)O)C(=O)NCC(=O)NCC(=O)N1CCC[C@H]1C(=O)N[C@@H](CO)C(=O)N[C@@H](CO)C(=O)NCC(=O)N[C@@H](C)C(=O)N1CCC[C@H]1C(=O)N1CCC[C@H]1C(=O)N1CCC[C@H]1C(=O)N[C@@H](CO)C(=O)N[C@@H](CCCCNC(=O)COCCOCCNC(=O)COCCOCCNC(=O)CC[C@H](NC(=O)CCCCCCCCCCCCCCCCCCC(=O)O)C(=O)O)C(N)=O)[C@@H](C)CC)[C@@H](C)CC
In the case of B3, in assay [1], the “hGIPR cAMP EC50 ratio” value was determined as 1.69 and the “hGIPR cAMP Rel EC50” value worked out at 0.0868 nM. In addition, in assay [2], the “hGLP1R cAMP EC50 ratio” value was 0.112 and the “hGLP1R cAMP Rel EC50” value came to 0.597 nM.

B4: Example 46 (peptide)
peptide: Y[Aib]EGTFTSDYSILLDKIAQ[Aib]AFIEYLIEGGPSSGAPK([AEEA-AEEA-γGlu-C20 diacid])PS-NH2
modifications: N-terminus assumed
SMILES: CC[C@H](C)[C@H](NC(=O)[C@H](CCCCN)NC(=O)[C@H](CC(=O)O)NC(=O)[C@H](CC(C)C)NC(=O)[C@H](CC(C)C)NC(=O)[C@@H](NC(=O)[C@H](CO)NC(=O)[C@H](Cc1ccc(O)cc1)NC(=O)[C@H](CC(=O)O)NC(=O)[C@H](CO)NC(=O)[C@@H](NC(=O)[C@H](Cc1ccccc1)NC(=O)[C@@H](NC(=O)CNC(=O)[C@H](CCC(=O)O)NC(=O)C(C)(C)NC(=O)[C@@H](N)Cc1ccc(O)cc1)[C@@H](C)O)[C@@H](C)O)[C@@H](C)CC)C(=O)N[C@@H](C)C(=O)N[C@@H](CCC(N)=O)C(=O)NC(C)(C)C(=O)N[C@@H](C)C(=O)N[C@@H](Cc1ccccc1)C(=O)N[C@H](C(=O)N[C@@H](CCC(=O)O)C(=O)N[C@@H](Cc1ccc(O)cc1)C(=O)N[C@@H](CC(C)C)C(=O)N[C@H](C(=O)N[C@@H](CCC(=O)O)C(=O)NCC(=O)NCC(=O)N1CCC[C@H]1C(=O)N[C@@H](CO)C(=O)N[C@@H](CO)C(=O)NCC(=O)N[C@@H](C)C(=O)N1CCC[C@H]1C(=O)N[C@@H](CCCCNC(=O)COCCOCCNC(=O)COCCOCCNC(=O)CC[C@H](NC(=O)CCCCCCCCCCCCCCCCCCC(=O)O)C(=O)O)C(=O)N1CCC[C@H]1C(=O)N[C@@H](CO)C(N)=O)[C@@H](C)CC)[C@@H](C)CC
As to B4, in assay [1], the “hGIPR cAMP EC50 ratio” value is 0.828 and the “hGIPR cAMP Rel EC50” value is 0.172 nM. Moreover, in assay [2], the “hGLP1R cAMP EC50 ratio” value was found to be 0.0969 and the “hGLP1R cAMP Rel EC50” value was 0.687 nM.

B5: Example 48 (peptide)
peptide: Y[Aib]EGTFTSDYSILLDKIAQ[Aib]AFIEYLIEGGPSSGAPPPK([AEEA-AEEA-γGlu-C20 diacid])-NH2
modifications: N-terminus assumed
SMILES: CC[C@H](C)[C@H](NC(=O)[C@H](CCCCN)NC(=O)[C@H](CC(=O)O)NC(=O)[C@H](CC(C)C)NC(=O)[C@H](CC(C)C)NC(=O)[C@@H](NC(=O)[C@H](CO)NC(=O)[C@H](Cc1ccc(O)cc1)NC(=O)[C@H](CC(=O)O)NC(=O)[C@H](CO)NC(=O)[C@@H](NC(=O)[C@H](Cc1ccccc1)NC(=O)[C@@H](NC(=O)CNC(=O)[C@H](CCC(=O)O)NC(=O)C(C)(C)NC(=O)[C@@H](N)Cc1ccc(O)cc1)[C@@H](C)O)[C@@H](C)O)[C@@H](C)CC)C(=O)N[C@@H](C)C(=O)N[C@@H](CCC(N)=O)C(=O)NC(C)(C)C(=O)N[C@@H](C)C(=O)N[C@@H](Cc1ccccc1)C(=O)N[C@H](C(=O)N[C@@H](CCC(=O)O)C(=O)N[C@@H](Cc1ccc(O)cc1)C(=O)N[C@@H](CC(C)C)C(=O)N[C@H](C(=O)N[C@@H](CCC(=O)O)C(=O)NCC(=O)NCC(=O)N1CCC[C@H]1C(=O)N[C@@H](CO)C(=O)N[C@@H](CO)C(=O)NCC(=O)N[C@@H](C)C(=O)N1CCC[C@H]1C(=O)N1CCC[C@H]1C(=O)N1CCC[C@H]1C(=O)N[C@@H](CCCCNC(=O)COCCOCCNC(=O)COCCOCCNC(=O)CC[C@H](NC(=O)CCCCCCCCCCCCCCCCCCC(=O)O)C(=O)O)C(N)=O)[C@@H](C)CC)[C@@H](C)CC
On to B5, for which, in assay [1], the “hGIPR cAMP EC50 ratio” value turned out to be 0.863 and the “hGIPR cAMP Rel EC50” value was 0.168 nM. In assay [2], the “hGLP1R cAMP EC50 ratio” value amounted to 0.0966 and the “hGLP1R cAMP Rel EC50” value came out at 0.691 nM.

The record behind these values is patent US20220048967A1 (published 2022).
